Laboratory results taken from US7786083B2, “Metastin derivatives and use thereof” (Takeda Pharmaceutical Company Limited, priority 2006, dated 2010).
[ ]: non-standard residue; d: D form. Phe(3-Me) = Cc1cccc(C[C@H](N)C(=O)O)c1; Phe(4-Me) = Cc1ccc(C[C@H](N)C(=O)O)cc1; Phe(2-Me) = Cc1ccccc1C[C@H](N)C(=O)O; Arg(Me) = CNC(=N)NCCC[C@H](N)C(=O)O; Dap(CONH2) = NC(=O)NC[C@H](N)C(=O)O; Ala(cPr) = N[C@@H](CC1CC1)C(=O)O; Hyp = O=C(O)[C@@H]1C[C@@H](O)CN1; αMeF = C[C@](N)(Cc1ccccc1)C(=O)O; 2Pal = N[C@@H](Cc1ccccn1)C(=O)O; 3Pal = N[C@@H](Cc1cccnc1)C(=O)O; 4Pal = N[C@@H](Cc1ccncc1)C(=O)O; Cha = N[C@@H](CC1CCCCC1)C(=O)O

Biological target: metastin receptor (OT7T175) stably expressed on CHO/dhfr- cells (human or rat, not given)
Test: cell-based or functional assay

Molecule | Specific Activity (EC50 of test compound based on EC50 of Metastin (45-54)); agonist activity, intracellular calcium ion level, FLIPR (ratio to Metastin (45-54))
des(1)-Ac-[D-Tyr2,Hyp3,Thr5,Cha6,Ala7,Arg(Me)9,Trp10]MS10 (peptide) | 0.5
des(1)-Ac-[D-Tyr2,Hyp3,Thr5,Dap7,Arg(Me)9,Trp10]MS10 (peptide) | 1.3
Ac-[dY][Hyp]NTFGL[Arg(Me)]W-NH2 [des(1)-Ac-[D-Tyr2,Hyp3,Thr5,Arg(Me)9,Trp10]MS10] | 1.2
Ac-[dY]ENTFGL[Arg(Me)]W-NH2 [des(1)-Ac-[D-Tyr2,Glu3,Thr5,Arg(Me)9,Trp10]MS10] | 0.5
Ac-[dY]ENT[Cha]GL[Arg(Me)]W-NH2 [des(1)-Ac-[D-Tyr2,Glu3,Thr5,Cha6,Arg(Me)9,Trp10]MS10] | 0.6
Ac-[dY][Hyp]NTFGL[Arg(Me)]W-NH2 (also: Gly6-Leu7 -CONH- replaced by -CH2NH-) [des(1)-Ac-[D-Tyr2,Hyp3,Thr5,Gly7Ψ(CH2NH)Leu8,Arg(Me)9,Trp10]MS10] | 2.9
Ac-[dY][Hyp]NTFAL[Arg(Me)]W-NH2 [des(1)-Ac-[D-Tyr2,Hyp3,Thr5,Ala7,Arg(Me)9,Trp10]MS10] | 0.5
Ac-[dY][Hyp]NT[Ala(cPr)]GL[Arg(Me)]W-NH2 [des(1)-Ac-[D-Tyr2,Hyp3,Thr5,Ala(cPr)6,Arg(Me)9,Trp10]MS10] | 1.9
Ac-[dY][Hyp][Dap(CONH2)]TFGL[Arg(Me)]W-NH2 [des(1)-Ac-[D-Tyr2,Hyp3,Alb4,Thr5,Arg(Me)9,Trp10]MS10] | 0.5
Ac-[dY][Hyp]NTFGL[Arg(Me)]W-NH2 (also: Gly6-Leu7 -CONH- replaced by (E) CH=CH) [des(1)-Ac-[D-Tyr2,Hyp3,Thr5,Gly7Ψ((E)CH═CH)Leu8,Arg(Me)9,Trp10]MS10] | 0.6
Ac-[dY][Hyp]NTFGL[Arg(Me)]W-NH2 (also: Gly6-Leu7 -CONH- replaced by -CH2CH2-) [des(1)-Ac-[D-Tyr2,Hyp3,Thr5,Gly7Ψ(CH2CH2)Leu8,Arg(Me)9,Trp10]MS10] | 0.8
Ac-[dY][Hyp]NT[Cha]G[Ala(cPr)][Arg(Me)]W-NH2 (SMILES CNC(=N)NCCC[C@H](NC(=O)[C@H](CC1CC1)NC(=O)CNC(=O)[C@H](CC1CCCCC1)NC(=O)[C@@H](NC(=O)[C@H](CC(N)=O)NC(=O)[C@@H]1C[C@@H](O)CN1C(=O)[C@@H](Cc1ccc(O)cc1)NC(C)=O)[C@@H](C)O)C(=O)N[C@@H](Cc1c[nH]c2ccccc12)C(N)=O) [des(1)-Ac-[D-Tyr2,Hyp3,Thr5,Cha6,Ala(cPr)8,Arg(Me)9,Trp10]MS10] | 0.5
Ac-[dY]ENT[Cha]G[Ala(cPr)][Arg(Me)]W-NH2 [des(1)-Ac-[D-Tyr2,Glu3,Thr5,Cha6,Ala(cPr)8,Arg(Me)9,Trp10]MS10] | 0.4
Ac-[dY][Hyp]NT[Cha]GL[Arg(Me)]W-NH2 (also: Gly6-Leu7 -CONH- replaced by (E)-CH=CH-) [des(1)-Ac-[D-Tyr2,Hyp3,Thr5,Cha6,Gly7Ψ((E)CH═CH)Leu8,Arg(Me)9,Trp10]MS10] | 0.6
Ac-[dY][Hyp][Dap(CONH2)]T[Cha]GL[Arg(Me)]W-NH2 (also: Gly6-Leu7 -CONH- replaced by (E) type alkene) [des(1)-Ac-[D-Tyr2,Hyp3,Alb4,Thr5,Cha6,Gly7Ψ((E)CH═CH)Leu8,Arg(Me)9,Trp10]MS10] | 0.4
Ac-[dY]ENT[Cha]GL[Arg(Me)]W-NH2 (also: Gly6-Leu7 -CONH- replaced by (E) type alkene) [des(1)-Ac-[D-Tyr2,Glu3,Thr5,Cha6,Gly7Ψ((E)CH═CH)Leu8,Arg(Me)9,Trp10]MS10] | 0.5
Ac-[dY]E[Dap(CONH2)]T[Cha]GL[Arg(Me)]W-NH2 (also: Gly6-Leu7 -CONH- replaced by (E) type alkene) [des(1)-Ac-[D-Tyr2,Glu3,Alb4,Thr5,Cha6,Gly7Ψ((E)CH═CH)Leu8,Arg(Me)9,Trp10]MS10] | 0.5
Ac-[dY][Hyp][Dap(CONH2)]TFGL[Arg(Me)]W-NH2 (also: Gly6-Leu7 -CONH- replaced by (E)-CH=CH-) [des(1)-Ac-[D-Tyr2,Hyp3,Alb4,Thr5,Gly7Ψ((E)CH═CH)Leu8,Arg(Me)9,Trp10]MS10] | 0.6

The remaining lines, values ahead:

Specific Activity (EC50 of test compound based on EC50 of Metastin (45-54)); agonist activity, intracellular calcium ion level, FLIPR (ratio to Metastin (45-54)) | Molecule
0.6 | des(1)-Ac-[D-Tyr2,Hyp3,Thr5,Phe6Ψ(CH2CH2)AzaGly7,Arg(Me)9,Trp10]MS10 (peptide)
0.4 | des(1)-Ac-[D-Tyr2,Pro(4F)3,Thr5,Cha6,Ala(cPr)8,Arg(Me)9,Trp10]MS10 (peptide)
0.5 | Ac-[dY][Hyp]NTFGL[Arg(Me)]W-NH2 (also: Phe5-Gly6 amide bond replaced by -CH2O-) [des(1)-Ac-[D-Tyr2,Hyp3,Thr5,Phe6Ψ(CH2O)Gly7,Arg(Me)9,Trp10]MS10]
1.2 | Ac-[dY][Hyp]NT[2Pal]GL[Arg(Me)]W-NH2 [des(1)-Ac-[D-Tyr2,Hyp3,Thr5,Pya(2)6,Arg(Me)9,Trp10]MS10]
1.7 | Ac-[dY][Hyp]NTFVL[Arg(Me)]W-NH2 [des(1)-Ac-[D-Tyr2,Hyp3,Thr5,Val7,Arg(Me)9,Trp10]MS10]
0.9 | Ac-[dY][Hyp]NT[3Pal]GL[Arg(Me)]W-NH2 [des(1)-Ac-[D-Tyr2,Hyp3,Thr5,Pya(3)6,Arg(Me)9,Trp10]MS10]
0.9 | Ac-[dY][Hyp]NT[4Pal]GL[Arg(Me)]W-NH2 [des(1)-Ac-[D-Tyr2,Hyp3,Thr5,Pya(4)6,Arg(Me)9,Trp10]MS10]
1.3 | Ac-[dY][Hyp]NTFGL[Arg(Me)]W-NH2 (also: Phe5-Gly6 amide bond replaced by -CH2CH2-) [des(1)-Ac-[D-Tyr2,Hyp3,Thr5,Phe6Ψ(CH2CH2)Gly7,Arg(Me)9,Trp10]MS10]
1.1 | Ac-[dY][Hyp]NTFGL[Arg(Me)]W-NH2 (also: Phe5-Gly6 amide bond replaced by -COCH2-) [des(1)-Ac-[D-Tyr2,Hyp3,Thr5,Phe6Ψ(COCH2)Gly7,Arg(Me)9,Trp10]MS10]
1.2 | Ac-[dY][Hyp]NTFGL[Arg(Me)]W-NH2 (also: Phe5-Gly6 amide bond replaced by -CH(OH)-CH2- ((S)-CHOH)) [des(1)-Ac-[D-Tyr2,Hyp3,Thr5,Phe6Ψ((S)CHOH-CH2)Gly7,Arg(Me)9,Trp10]MS10]
1.7 | Ac-[dY][Hyp]NTFGL[Arg(Me)]W-NH2 (also: Phe5-Gly6 amide bond replaced by -CH(OH)-CH= ((S)-CHOH, (E) alkene)) [des(1)-Ac-[D-Tyr2,Hyp3,Thr5,Phe6Ψ((S)CHOH-(E)CH═)Gly7,Arg(Me)9,Trp10]MS10]
0.7 | Ac-[dY][Hyp]NTFGL[Arg(Me)]W-NH2 (also: Phe5-Gly6 -CONH- replaced by (E) CH=CH) [des(1)-Ac-[D-Tyr2,Hyp3,Thr5,Phe6Ψ((E)CH═CH)Gly7,Arg(Me)9,Trp10]MS10]
1.4 | Ac-[dY][Hyp]NTFGL[Arg(Me)]W-NH2 (also: Phe5-Gly6 -CONH- replaced by (R)-CH(OH)-(E)CH= to Gly α carbon) [des(1)-Ac-[D-Tyr2,Hyp3,Thr5,Phe6Ψ((R)CHOH-(E)CH═)Gly7,Arg(Me)9,Trp10]MS10]
0.8 | Ac-[dY][Hyp]NTFGL[Arg(Me)]W-NH2 (also: Phe5-Gly6 -CONH- replaced by (R)-CH(OH)-CH2-) [des(1)-Ac-[D-Tyr2,Hyp3,Thr5,Phe6Ψ((R)CHOH-CH2)Gly7,Arg(Me)9,Trp10]MS10]
3.8 | Ac-[dY][Hyp]NT[αMeF]GL[Arg(Me)]W-NH2 (SMILES CNC(=N)NCCC[C@H](NC(=O)[C@H](CC(C)C)NC(=O)CNC(=O)[C@](C)(Cc1ccccc1)NC(=O)[C@@H](NC(=O)[C@H](CC(N)=O)NC(=O)[C@@H]1C[C@@H](O)CN1C(=O)[C@@H](Cc1ccc(O)cc1)NC(C)=O)[C@@H](C)O)C(=O)N[C@@H](Cc1c[nH]c2ccccc12)C(N)=O) [des(1)-Ac-[D-Tyr2,Hyp3,Thr5,αMePhe6,Arg(Me)9,Trp10]MS10]
0.7 | Ac-[dY][Hyp]NT[Phe(2-Me)]GL[Arg(Me)]W-NH2 [des(1)-Ac-[D-Tyr2,Hyp3,Thr5,Phe(2Me)6,Arg(Me)9,Trp10]MS10]
0.8 | Ac-[dY][Hyp]NT[Phe(3-Me)]GL[Arg(Me)]W-NH2 [des(1)-Ac-[D-Tyr2,Hyp3,Thr5,Phe(3Me)6,Arg(Me)9,Trp10]MS10]
0.9 | Ac-[dY][Hyp]NT[Phe(4-Me)]GL[Arg(Me)]W-NH2 [des(1)-Ac-[D-Tyr2,Hyp3,Thr5,Phe(4Me)6,Arg(Me)9,Trp10]MS10]
0.6 | Ac-[dY][Hyp]NTFSL[Arg(Me)]W-NH2 [des(1)-Ac-[D-Tyr2,Hyp3,Thr5,Ser7,Arg(Me)9,Trp10]MS10]
